Source: US20150299277A1, “AGENT FOR TREATING OR PREVENTING SYSTEMIC INFLAMMATORY RESPONSE SYNDROME” (THE UNIVERSITY OF TOKYO, priority 2012, published 2015)
“Also recorded” adds a separate entry of the source.

Key:
histone H3 = target: T1, histone H3 (Homo sapiens, UniProt P68431); test: ELISA binding assay; conditions: immobilized recombinant histone, absorbance at 450 nm
T1 construct: purchased NEB
Description: (§1) Recombinant human histone (NEB) was adjusted to a concentration of 1 μg/mL in TBS, added to a 96 well ELISA plate, and immobilized at 4° C. overnight. The solution was discarded, a blocking buffer (TBS, 0.1% Triton-X100, 1% BSA) was added, and the plate was incubated at room temperature for 2 hr. The plate was washed four times with a wash buffer (TBS, 0.1% Triton-X100), recombinant PTX3 diluted to various concentrations with the blocking buffer was added to each well, and reacted at room temperature for 1 hr. After washing four times with the wash buffer, HRP-labeled antibody diluted with the blocking buffer was added, and reacted at room temperature for 1 hr. After washing four times with the wash buffer, TMB solution was added to carry out a color development reaction for 30 min, and the absorbance at 450 nm was measured. Assay was performed using all the buffers containing 4 mM CaCl2 or 4 mM EDTA.
(§2) The binding level between immobilized each recombinant histone and tag-free recombinant human PTX3 (rhPTX3) was measured by binding assay (ELISA). For the detection, HRP-labeled anti-PTX3 monoclonal antibody (PPZ1228) was used. ELISA was performed with duplicate wells for each point, and means and standard deviations were calculated from three independent experiments.
(§3) The binding level between immobilized each recombinant histone and a tagged human PTX3 fragment was measured by binding assay (ELISA). For detection, HRP-labeled anti-His (6×His) antibody was used. ELISA was performed with duplicate wells for each point, and means and standard deviations were calculated from three independent experiments.

histone H1 = target: T2, histone H1 (Homo sapiens, UniProt P07305); test: ELISA binding assay; conditions: immobilized recombinant histone, absorbance at 450 nm
T2 construct: purchased NEB
Description: as §1, §2, §3

each histone [1] = test: ELISA binding assay; set-up: species or system human; conditions: buffers containing 4 mM CaCl2 or 4 mM EDTA
Description: as §1, with “Assay was performed using all the buffers containing 4 mM CaCl2 or 4 mM EDTA.” left out
The binding level between immobilized each recombinant histone and tag-free recombinant human PTX3 (rhPTX3) was measured by binding assay (ELISA). […] ELISA was performed with duplicate wells for each point, and means and standard deviations were calculated from three independent experiments.
The binding level between immobilized each recombinant histone and a tagged human PTX3 fragment was measured by binding assay (ELISA). […] ELISA was performed with duplicate wells for each point, and means and standard deviations were calculated from three independent experiments.

each histone variant = test: Aggregation of each histone variant and PTX3 fragment, absorbance at 310 nm; type: binding; conditions: histone variant 50 μg/mL, PTX3 fragment 30 μg/mL
Description: Each histone variant (50 μg/mL) and each PTX3 fragment (30 μg/mL) were mixed, and the absorbance at the wavelength of 310 nm was measured. Before mixing, samples were dialyzed against 4 mM CaCl2-containing TBS.

histone H4 = histone H4 (Homo sapiens, UniProt P62805); test: ELISA binding assay; set-up: purchased NEB; conditions: immobilized recombinant histone, absorbance at 450 nm
Description: as §1, §2, §3

each histone [2] = test: BIAcore / surface plasmon resonance (SPR) measurement; type: binding, human; conditions: immobilized recombinant histone
Description: For the measurement, BIAcore 3000 or T200 (GE Healthcare) was used. Recombinant human histone was immobilized on CM5 sensor chip by an amine coupling kit (GE Healthcare). The reaction with recombinant PTX3 was performed using a buffer (150 mM NaCl, 20 mM HEPES, 0.005% surfactant P20 (pH 7.4)) at a flow rate of 20 μl/min. Measurement was performed using the buffer containing […]. The sensor chip was regenerated in IM sodium acetate (10 μL, pH 7.2) and 10 mM NaOH (10 μL).
The binding of immobilized each recombinant histone, and Myc- and His-tagged human PTX3 fragment was measured by surface plasmon resonance (SPR). The highest concentration of each PTX3 was as follows. full-length PTX3: 1 nM, N-terminal domain of PTX3: 5 nM, C-terminal domain of PTX3: 50 nM. The assay buffer contained 4 mM CaCl2 (Ca^2+) or 4 mM EDTA/EGTA. The affinity measured by SPR was calculated from three experiments.

fragment H4-9 on HUVEC = test: Suppression of cytotoxic activity of histone fragment on HUVEC; type: cell-based, human; conditions: fragment 250 μg/mL; full-length PTX3 at 80 μg/mL; HUVEC 1 hr
Description: (§4) Then, a suppressive effect of PTX3 on the cytotoxic activity of fragments […], H3-8, H3-11 and H4-9 was evaluated.
(§5) In the same manner as in FIGS. 7B-D, a suppressive effect of the N-terminal domain of PTX3 on the cytotoxic activity of histone H3 and H4 fragments was evaluated.

fragment H3-11 on HUVEC = test: as above; type: cell-based, human; conditions: fragment 250 μg/mL; full-length PTX3 at 80 μg/mL; HUVEC 1 hr
Description: as §4, §5

fragment H3-8 on HUVEC = test: as above; type: cell-based, human; conditions: fragment 250 μg/mL; full-length PTX3 at 80 μg/mL; HUVEC 1 hr
Description: as §4, §5

fragment H3-6 on HUVEC = test: as above; type: cell-based, human; conditions: fragment 250 μg/mL; full-length PTX3 at 80 μg/mL; HUVEC 1 hr
Description: as §4, §5

[3] = test system: Calf Thymus Histones on HUVEC; test: Cytotoxic assay: suppression of histone cytotoxicity on HUVEC; type: cell-based, human; conditions: 100 μg/mL Calf Thymus Histones, 40 μg/mL protein, 1 hr, PI staining, FACS
Description: After culturing for 1 hr in a medium concurrently containing 100 μg/mL Calf Thymus Histones and APC (200 nM), PTX3 (40 μg/mL), CRP (40 μg/mL) or SAP (40 μg/mL), the level of toxic activity was measured by FACS.
Normal human umbilical vein endothelial cells (HUVECs) were cultured in EGM2 medium (Clonetics). The cells after culture were washed with PBS, added with Opti-MEM medium containing an product of incubation of activated protein C (APC), PTX3, C reactive protein (CRP) or Serum amyloid P component (SAP) with histone for 1 hr, and the cells were further cultured for 1 hr. Propidium iodide (PI) was added to the medium after culture at a final concentration of 10 μg/mL, and the cells were stained for 10 min. The cells were washed with PBS, detached and analyzed by flow cytometry.
The histone cytotoxicity on HUVEC was evaluated by propidium iodide (PI) staining.
Lastly, capacity of suppressing the cytotoxic activity of histone was confirmed. Since this experiment requires a certain amount of protein and an endotoxin-elimination as treatment, a protein was expressed and purified at a 500 mL culture scale, and subjected to an endotoxin-elimination treatment (FIG. 18). In the case of PTX3 N-terminal domain, about 10 mg was obtained at a 500 mL culture scale, and a loss by the endotoxin-elimination treatment was scarcely observed. […] A capacity of fragment proteins obtained at a 500 mL scale on HUVEC to suppress histone cytotoxicity was studied. […] In consideration of the experiments relating to the binding and aggregation, all fragments were considered to possibly have a certain level of suppressive capacity.

T2 sequence (P07305 whole entry): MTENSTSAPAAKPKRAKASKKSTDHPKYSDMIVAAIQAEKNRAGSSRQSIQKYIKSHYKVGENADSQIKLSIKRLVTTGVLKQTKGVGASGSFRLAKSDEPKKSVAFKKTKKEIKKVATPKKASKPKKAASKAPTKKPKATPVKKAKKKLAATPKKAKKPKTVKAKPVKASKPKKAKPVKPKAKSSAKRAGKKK

Row | Substance | binding to histone H3 (binding assay) (histone H3) | binding to histone H3 (binding assay) (histone H3; listed as N-terminal domain) | binding to histone H1 (binding assay) (histone H1) | binding to histone H1 (binding assay) (histone H1; listed as N-terminal domain) | influence of calcium ion on binding to each histone (each histone [1]) | aggregation with each histone variant, absorbance at 310 nm (each histone variant) | binding to histone H4 (binding assay) (histone H4) | binding to histone H4 (binding assay) (histone H4; listed as N-terminal domain) | affinity for each histone by SPR (each histone [2]) | suppressive effect on cytotoxic activity of fragment H4-9 (fragment H4-9 on HUVEC) | suppressive effect on cytotoxic activity of fragment H3-11 (fragment H3-11 on HUVEC) | suppressive effect on cytotoxic activity of fragment H3-8 (fragment H3-8 on HUVEC) | suppressive effect on cytotoxic activity of fragment H3-6 (fragment H3-6 on HUVEC) | suppression of toxic activity of Calf Thymus Histones on HUVEC [3] | affinity for each histone by SPR (each histone [2]; listed as PTX3) | suppression of toxic activity of Calf Thymus Histones on HUVEC ([3]; listed as PTX3)
1 | N-terminal domain of PTX3: N-terminal domain human PTX3 (18-178 amino acids, SEQ ID NO: 3), tagged, expressed in CHO cells or Escherichia coli | equivalent to that of the full-length PTX3 | strong bindability | equivalent to that of the full-length PTX3 | strong bindability | stronger binding was found in the presence of calcium ion | aggregated | equivalent to that of the full-length PTX3 | strong bindability | full-length PTX3>N-terminal domain>C-terminal domain | neutralized | neutralized | neutralized | neutralized | suppress toxic activity of histone on HUVEC; also recorded: suppressed | – | –
2 | full-length PTX3: full-length human pentraxin 3 (1-381 amino acids, SEQ ID NO: 2), used tag-free or Myc- and His-tagged | strong binding affinity | – | strong binding affinity | – | stronger binding was found in the presence of calcium ion | aggregated | strong binding affinity | – | full-length PTX3>N-terminal domain>C-terminal domain | neutralized | neutralized | neutralized | neutralized | suppress toxic activity of histone on HUVEC | extremely high | suppresses cytotoxic activity of extracellular histone on HUVEC to the same level as APC
